Columns and labels:
[1] = system: TSG-6 binding protein in serum; assay: TSG-6 binding to carrier protein in sera (120-kDa complex, Western blot); details: recombinant human TSG-6 incubated with human, fetal bovine, rabbit, or mouse serum, 37° C.
Description: (§1) Analysis of TSG-6 Binding to Carrier Protein. To determine the presence of TSG-6 binding protein, samples to be analyzed were mixed with an equal volume of TSG-6-containing serum-free supernatants of TN-5 B insect cells infected with recombinant Baculovirus and incubated at 37° C. for 30-60 min. (Purified TSG-6 protein was used in some experiments, as indicated.) Thereafter, the mixtures were analyzed for the presence of the 120-kDa complex by Western blotting with purified rabbit antibody to TSG-6 as described earlier (Wisniewski et al, J. Immunol. 151:6593-6601 (1993)). For detection of inter-α-inhibitor (IαI) epitopes by Western blotting, membranes were incubated with a rabbit anti-human IαI antibody (Dako) at a 1:2000 dilution for 1 hr.
Binding of TSG-6 Protein to a Protein Present in Mammalian Sera and in Supernatants of Human HepG-2 Hepatoma Cells. […] Recombinant human TSG-6 protein produced in insect cells migrates somewhat faster than the 35-kDa TSG-6 protein from human cells (Wisniewski et al, J. Immunol. 151:6593-6601 (1993)) possibly due to s different extent of glycosylation. […] When TSG-6 containing culture upernatants were incubate at 37° C. in the presence of fetal bovine serum (lane 3), mouse serum (lane 7), or serum-free culture supernatant of human HepG-2 hepatoma cells (lane 5), an additional 120-kDa band became readily apparent. […]

[2] = Binding of TSG-6 protein to hyaluronic acid coupled to Sepharose (Western blot); design: species or system bovine
Description: To analyze the hyaluronic acid binding properties of the TSG-6 protein, hyaluronic acid was coupled to Sepharose (HA-Sepharose) to be used as a matrix for affinity chromatography.
To couple hyaluronic acid to Sepharose, 100 mg hyaluronic acid from bovine trachea (Sigma Chemicals) was dialyzed extensively against 0.5 M NaCl. Five ml EAH-Sepharose 4 B (Pharmacia) was washed extensively with 0.5 M NaCl and mixed with the hyaluronic acid solution. The pH was adjusted to 4.5 and 40 mg 1-(3-dimethylaminopropyl)-3-ethylcarbodiimide hydrochloride (Aldrich Chem. Co.), dissolved in 1 ml distilled water, was added dropwise under constant stirring. The pH was kept at 4.5 for 1 hr. After constantly stirring the reaction mixture overnight, 200 μl acetic acid were added for another 4 hr to block the remaining amino groups on the EAH-Sepharose. […]
To show the binding of TSG-6 protein to HA-Sepharose but not to a similarly activated and blocked control Sepharose matrix, concentrated serum-free supernatant of GSV-L5 cells was used. […] Thereafter, the supernatants were removed and analyzed by Western blotting with anti-TSG-6 antibody. […] After vigorous shaking and centrifugation the supernatants were removed, dialyzed against Tris buffered saline and analyzed by Western blotting (FIG. 15). […]

[3] = target: T1, IαI purified from human serum (Homo sapiens, UniProt P02760+P19823); assay: TSG-6/IαI complex formation with purified proteins (SDS-PAGE, Western blot); type: binding
T1 construct: IαI is a complex protein in which the bikunin chain is linked to HC1 and HC2; supposed to determine the cleavage site for the C-terminal propeptide; from tissue; host or cells: human serum
T1 sequence (P02760 206-352 limits assumed): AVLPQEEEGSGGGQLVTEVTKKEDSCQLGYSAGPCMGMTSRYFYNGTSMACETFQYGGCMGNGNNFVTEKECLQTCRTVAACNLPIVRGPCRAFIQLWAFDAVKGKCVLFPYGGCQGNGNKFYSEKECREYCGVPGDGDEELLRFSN
T1 sequence (P19823 55-702 limits assumed): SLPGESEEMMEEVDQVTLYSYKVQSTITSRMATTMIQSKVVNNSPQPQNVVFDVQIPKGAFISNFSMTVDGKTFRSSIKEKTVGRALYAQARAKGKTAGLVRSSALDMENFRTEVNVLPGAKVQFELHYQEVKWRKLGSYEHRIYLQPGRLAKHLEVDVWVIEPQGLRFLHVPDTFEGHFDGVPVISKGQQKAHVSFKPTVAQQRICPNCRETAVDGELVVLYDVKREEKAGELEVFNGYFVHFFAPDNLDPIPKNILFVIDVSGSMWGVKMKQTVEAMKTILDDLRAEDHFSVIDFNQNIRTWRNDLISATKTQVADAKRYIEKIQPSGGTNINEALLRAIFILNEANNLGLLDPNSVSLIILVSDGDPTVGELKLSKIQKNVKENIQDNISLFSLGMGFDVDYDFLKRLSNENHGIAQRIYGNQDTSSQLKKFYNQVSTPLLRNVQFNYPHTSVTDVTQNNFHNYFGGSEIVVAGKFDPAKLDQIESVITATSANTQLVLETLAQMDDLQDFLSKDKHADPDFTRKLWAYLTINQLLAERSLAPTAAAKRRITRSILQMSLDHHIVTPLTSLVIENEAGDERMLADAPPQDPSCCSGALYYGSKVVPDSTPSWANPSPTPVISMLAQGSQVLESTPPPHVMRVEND
T1 sequence (P98066 18-277 partner): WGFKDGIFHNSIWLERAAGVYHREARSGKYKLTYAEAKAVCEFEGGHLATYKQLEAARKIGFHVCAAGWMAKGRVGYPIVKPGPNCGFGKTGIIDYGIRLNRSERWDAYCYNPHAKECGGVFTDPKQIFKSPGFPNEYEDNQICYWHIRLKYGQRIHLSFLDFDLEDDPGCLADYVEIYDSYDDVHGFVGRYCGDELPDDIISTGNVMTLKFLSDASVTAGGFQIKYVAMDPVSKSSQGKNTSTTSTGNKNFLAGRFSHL
Description: Purified recombinant TSG-6 protein (lane 1) and IαI purified from human serum (lane 2) were mixed and incubated for 2 min. (lane 3), 5 min. (lane 4), 10 min. (lane 5), 15 min. (lane 6), 30 min. (lane 7), or for 60 min. (lane 8) at 37° C. or for 60 min. at 0° C. (lane 9). The reaction mixtures were then separated by SDS-PAGE and subjected to Western blot analysis with rabbit anti-TSG-6 serum.
Four micrograms of purified IαI and 3 μg of purified TSG-6 protein were incubated separately for 16 hrs. at 37° C. in the absence or presence of 30 milliunits of chondroitin sulfate ABC lyase. Thereafter, control IαI was mixed with control TSG-6 protein (lane 1), chonroitinase-pretreated IαI was mixed with control TSG-6 (lane 2), and control IαI was reaction mixtured with chondroitinase-pretreated TSG-6 protein (lane 3). The reaction mixtures were incubated for 1 hr. at 37° C. before SDS-PAGE and Western blot analysis with anti-TSG-6 antibody.
as §1
Purification of IαI from Human Serum. IαI purified from human serum, according to Salier et al, Anal Biochem. 109:273-283 (1980), with some modifications. FPLC on Q Sepharose Fast Flow was used instead of DEAE-Sephacel chromatography. Chelating Sepharose Fast Flow was used for zinc chelate chromatography. Phenyl Superose was used for Hydrophobic chromatography and Superdex 200 was used for size-exclusion chromatography instead of Sephacryl-300. The IαI recovered was essentially pure as judged by SDS-PAGE and silver staining.
Rapid Complex Formation between Recombinant TSG-6 Protein and IαI Purified from Human Serum at 37° C. The 120kDa TSG-6/IαI complex formed readily when purified TSG-6 protein and purified IαI were incubated together at 37° C. but not at 0° C. […] This IαI derivative appears to be a by product of the reaction of TSG-6 with IαI. It should be noted that the 120kDa TSG-6/IαI complex is formed by purified TSG-6 and IαI proteins in the apparent absence of other proteins.
Chondroitin Sulfate Associated with IαI Is Required for the Formation of the TSG-6/IαI Complex. […]

[4] = purified TSG-6 protein and purified IαI, 37° C.

**Q.** Which “complex formation on incubation with serum” value [1] does the source give for “TSG-6 protein: cytokine-induced protein or glycoprotein, amino acid sequence SEQ ID NO:2; from GSV-L5 cells or Baculovirus-infected insect cells” here?
**A.** The value was “readily incorporated into a stable 120 kDa complex”.

**Q.** What about the “binding of TSG-6 protein to HA-Sepharose” value ([2]; concentrated serum-free GSV-L5 culture supernatant, overnight at 4° C., elution with 3 M NaCl) of the same substance?
**A.** Its value is “bound virtually all the TSG-6 protein”.

**Q.** What about the “binding of TSG-6 protein to control Sepharose matrix” value ([2]; control Sepharose without hyaluronic acid, same procedure) of the same substance?
**A.** Its value is “did not bind any detectable TSG-6 protein”.

**Q.** And the “ability to form the TSG-6/IαI complex after pretreatment of the protein with chondroitin sulfate ABC lyase” value ([3]; preincubated 16 hrs. at 37° C. with chondroitinase, then mixed with the untreated partner protein)?
**A.** Its value is “little effect”.

**Q.** What about the “TSG-6/IαI complex formation at 0° C.” value ([3]; purified TSG-6 protein and purified IαI, 0° C., within 1 hr.) of the same substance?
**A.** The value was “little or no TSG-6/IαI complex was formed”.

**Q.** What about the “time until TSG-6/IαI complex formation detectable” value [3, 4] of the same substance?
**A.** The value was ≤ 2 min.

**Q.** What about the “time until complex formation reaction appeared complete” value [3, 4] of the same substance?
**A.** The value was ≤ 10 min.

Reference: patent publication US6518401B2, “Tumor necrosis factor stimulated gene 6 (TSG-6) protein” (New York University, priority 1991, dated 2003)
